Reference: publication PMC10557868, “Piperacetazine Directly Binds to the PAX3::FOXO1 Fusion Protein and Inhibits Its Transcriptional Activity”

Legend:
[1] = target: T1, PAX3::FOXO1 fusion protein (UniProt P23760 1-391+Q12778:211-655, internal_change); experiment: SPR; DNA 1.25-80 nM; SPR, Biacore T-200, CM5 chip; PBS-P (20 mM phosphate pH 7.4, 137 mM NaCl, 2.7 mM KCl, 0.05% P20) stated as immobilization running buffer, with 5% DMSO for small molecules; temperature not stated; conditions: protein: recombinant; tags: C-terminal 12xHis; N-terminal internal HA tag; blunt
[2] = target: T1, PAX3::FOXO1 fusion protein; experiment: SPR; SPR, Biacore T-200, CM5 chip; PBS-P (20 mM phosphate pH 7.4, 137 mM NaCl, 2.7 mM KCl, 0.05% P20) stated as immobilization running buffer, with 5% DMSO for small molecules; temperature not stated; conditions: protein: recombinant; tags: C-terminal 12xHis; N-terminal internal HA tag; blunt

T1 sequence (P23760 other isoform, or with tags, fused parts or gaps): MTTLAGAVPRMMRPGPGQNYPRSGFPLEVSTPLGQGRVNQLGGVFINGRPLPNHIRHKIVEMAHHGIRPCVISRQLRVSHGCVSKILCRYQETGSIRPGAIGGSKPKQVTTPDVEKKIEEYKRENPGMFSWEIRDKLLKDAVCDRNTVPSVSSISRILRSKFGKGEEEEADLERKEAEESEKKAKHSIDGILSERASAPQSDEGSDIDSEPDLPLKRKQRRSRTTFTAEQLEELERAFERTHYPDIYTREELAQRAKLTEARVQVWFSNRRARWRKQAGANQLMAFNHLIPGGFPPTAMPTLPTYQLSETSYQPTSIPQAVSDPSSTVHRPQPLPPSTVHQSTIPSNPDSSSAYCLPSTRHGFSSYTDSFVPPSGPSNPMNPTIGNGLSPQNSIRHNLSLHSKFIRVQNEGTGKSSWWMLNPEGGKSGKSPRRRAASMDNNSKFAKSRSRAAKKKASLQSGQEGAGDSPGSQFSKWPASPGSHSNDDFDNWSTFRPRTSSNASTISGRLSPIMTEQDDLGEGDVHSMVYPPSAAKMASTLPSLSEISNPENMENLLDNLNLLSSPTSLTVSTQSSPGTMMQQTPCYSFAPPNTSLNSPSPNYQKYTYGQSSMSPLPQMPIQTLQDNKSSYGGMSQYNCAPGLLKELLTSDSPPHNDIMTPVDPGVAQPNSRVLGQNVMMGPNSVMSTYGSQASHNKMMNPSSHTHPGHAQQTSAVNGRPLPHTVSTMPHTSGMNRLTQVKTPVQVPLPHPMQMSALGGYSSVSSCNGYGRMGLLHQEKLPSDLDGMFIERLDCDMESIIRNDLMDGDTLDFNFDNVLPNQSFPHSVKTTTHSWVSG

Binder | binding result [1] | Kd [2]
EWS::FLI1-specific oligonucleotide (GGAA repeats) (dsDNA) DNA 1: ACCGGAAGGAAGGAAGGAAGGAAGGAAGGAAGTG DNA 2: CACTTCCTTCCTTCCTTCCTTCCTTCCTTCCGGT | no binding | 
PAX3::FOXO1-specific oligonucleotide (dsDNA) DNA 1: ACCGTGACTAATTTAATTAGTCACG DNA 2: CGTGACTAATTAAATTAGTCACGGT |  | 6.3 nM
